In the assay the target is T1, human CD47 (human, UniProt Q08722 19-139, limits assumed).
T1 construct: in the IHC study it is the native protein in frozen human tissues; also called Integrin-Associated-Protein; IAP
The experiment in a line: immunohistochemistry, biotin-conjugated NI-1801 on frozen human tissues. The text has this:
Sections of ovarian carcinoma (endometrioid adenocarcinoma) were used as positive controls.

T1 sequence (Q08722 19-139 limits assumed): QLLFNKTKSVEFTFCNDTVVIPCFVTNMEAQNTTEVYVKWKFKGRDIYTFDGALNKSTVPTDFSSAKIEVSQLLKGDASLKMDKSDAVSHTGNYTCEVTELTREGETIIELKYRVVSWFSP

B1: NI-1801 (bispecific antibody Ka3×O38, anti-CD47 × anti-mesothelin) (bispecific antibody, human IgG1, kappa, lambda)
heavy: not shown
light 1: not shown
light 2: QPVLTQPASLSASPGASASLTCTLRSGINVRDYRIFWYQQKPGSPPQYLLRYKSASDKQQGSGVPSRFSGSKDASANAGILLISGLQSEDEADYYCMIWHHDSEGHAFVFGGGTKLTVLGQPKAAPSVTLFPPSSEELQANKATLVCLISDFYPGAVTVAWKADSSPVKAGVETTTPSKQSNNKYAASSYLSLTPEQWKSHRSYSCQVTHEGSTVEKTVAPTECS
notes: also called CD47×MSLN bispecific
In the case of B1, the binding result is on record as “binds”.
